Results taken from a protein production outcome set (Wang et al. 2014).

Experiment: label from the status in PepcDB records

Row | Sequence | protein production
1 | GASDGGGSIRIPASFSGLIGLKPSRGSMPVGPEGWRGWQGASIDFALTISMRDTKALFYGLRGSHSGAPYQAPLAEWQTHPKKQRLKIALCTASPIGSLISPEATQAAKQAADFLAAAGHEIIEIPYPVDGAALIRSYYQMNGAETTAMMNSIQQGLGRPIRKEEIESFSWTMHQFGQKIPAATYVHSLQLWDQAAVTMEELFQKFDLFLSPTTAFSAPKINEDLQSEHIRQRMAQAAELTEAELAELIYDYFDKSLQLTPYTQLANLTGQPAISLPTHVTATGLPLGIQLLAARGREDLLFQVGEQFEQEGK | failed
2 | MRTVPSLSMSKSRCNMLASTLDRPSPEDSQTLAEVERTITSGVGALCFSRGLERRYQTETRLQRREFLTAMGIGGSLIYNLFLITDWLILRDVFVYVAIGRLCLITPMFIIMLILARRLASRRAMETTAAVATVLCSLMPMVVMTYSESPYQIFYQLGMLLIMVYCTMIQQLPLRHAAAALSCMLIIQLVTTYIADFADFVIWQANALLFVSTVMLLLMASYFLERASRLSYLFALRGRLLQVQLLEFARTDALTRLFNRRYQDEVLTSVWERARKKQANVAIILLDIDHFKSYNDNYGHPQGDVCLKLLCKAIQQSANDGGAVAFRFGGEEVLVLMNADADQATKMAETLKATVAALKLPHPALGEDAHVTISLGVASGIAPLITYDTLISAADNALYAAKHAGRNCVFCQP | failed
3 | MRKTKTEALKTKEHLMLAALETFYRKGIARTSLNEIAQAAGVTRGALYWHFKNKEDLFDALFQRICDDIENCIAQDAEDAEGGSWAVFRHTLLHFFERLQSNDIYYKFHNILFLKCEHTEQNAAVIAIARKHQAIWREKITAVLTEAVENQDLADDLDKETAVIFIKSTLDGLIWRWFSSCERFDLGKTAPRIIGIMMDNLENHPDLRRK | not failed
4 | MRKSVSRASSIITGLLVMSIGLNSTEYLSIYKLILFNKKTCMKLKTHFVFSIGLLTLASSFFGFSLIISAIISVLGNTLIDRLGHKEISTRYGKIPVRTPLTHTLPRSVFWGLISSMPVIIVLGLAYGMLNTKILTALIDGILVGPSHMLLDVFTENGIYVKRNGKWKRVALAHFSYDSSLINGLAIVLGIIMIFAAMELHH | failed
5 | MERIAMNPLMQQAIQFANDHETAWDRSVRGNFGVHLDDPPPWNRLLGPVHDRGPVSGVVVVDGQTLASWGEPERADLTFSVAKLYLSILAGVAHDRGLLPDVDEPVGRRVPGIGFDAGRNARITWRHLLQQTSEWEGERFGVPDQADRYRAVAFGIPPDGRKGDARPLQEPGTYWEYNDVRINQLSYALLHLFRRPLPEVFREAVTRPLGASEDWQWVGYDNAWVDIDGVRMPSVPGGTHWGGGMSISARDQALIGRMLLDEGRAADGRQVLSPAWIQAMRTPCDIAPYYGYLIWLNHERKVFPSVPASSFFGIGAGSSFTWVEPERRMVVIVRWLDAAYADALFGRILAAVDAHRAGLEHHHHHH | failed
6 | MDNKLPHYSRERLLGEGGMGKVYLAQDNQLQRQVAIKELTYQPKDDEVNHALKEARLLARVNHSNIIQIYNVHDEGDHISLVMEYFNSKTLTQFQQEAYTTLVQKLDLLQQLSAGLAAAHKNGVIHCDLKPSNILVNDQGQLKITDFGIALLASNESQNSEQTASNNPLQFGSLLFMSPEQIKLQAVDYRSDIFSFGIIAYQLMVGSHPFAYGNNGGSATDVAKRICEHTPEHAKNLMLNAPSALTDLLMEMLVKPLEQRTLTAEAIENRLKHIRTALLQAEISEQATMPLSSGSANIAGDDTGQYTQAVHTTLLSQNTQIVQPADNLQASWFKQNYKTVASIALLCLVMILFVGFYNTQEVETKQVVILKPTLADSSLMAPMQQDLVISAVEDALRQAVINTKNMYLISQREVNAITKEYPDDLNKLRQAVGASDIISTTLECDNSRCKVSFSRLVVNDNSSDNLSVKSEKNWLAPVDKFNAIFSTSQTQFASLFPEESEVNQSGLVQRPINENDYRNYIELYSQIKGQGEYSVESLTKLETLLTRSPYLYAAYGLFRETASNLYTDSRDEIHLKRLELVLQNSPPEYRYSVYHAIDSFFVAYKIKELDTAQQQIIEAKNKGASSFVLSELNAILFFSKGQYQKAADTFEEALVLRPSTTLLYNLAFSYWRMGDLSKAEDALNKMLEIIPGNYKAQQLQANIWLLQGKLELAITAYEKIVAALSNGRDLTNLSLAYALNKQYKKSLIYAKKAVDLSPKNRIRRLNLADIEFILGRVKSSNFNYKKVIDAPVDNNKYRYWLDIAQAQLQLNQQNLAIEALNKAKHLAPDNGEVAYTSALVYSVLGERVSAIFEVNKALANKVGSVWFNLPWFDSLCDDKEFELLMVKYNNQKRCRT | failed
7 | MNVLRPALLTLACMLASPVMSDDLPSLGDASSSIVSPEQEFQLGRAWLSMLRNQVDAISDPQLKDFVESSVYRLAETSDLQDHRLAFILIRDAQINAFAAPGGVIGVNGGLLLNAQTEGEYAAVLAHELGHLIQRHFARGIEAQQRMQLPVMAAMLAGIVAAAAGAGDAGIAAIAGTQAAAIQNQLRFSRQNEQEADRVGVTNMVRAGYDPRSMPNMFERLARQYRYDGKPPEFLLTHPVTESRIADTRNRAEQYPQGGKEDSLRYQQMRARTQLLFEETPGMAGKRFRAMLNDNPKLDAARYGLAISQTRIGQLNDARDNLRQLLAKAPNDVAYNLAQVELDITANRLPDADQRLKKMLAQFPSSYPLKQVRADLMLKMGKPQESEKILDDLSKARPLDPDVWNRLAEVRSLTNNAIGVHQARAEYLSLTGDYQAAIEQLDFAKRRAGGNFQLAARLDARQQEIRQQEKMVKEMFR | failed
8 | MTELATMEFHAQPQAGEPKPWAFPAPERGSLDNGLTVLRCHRPGQQVVAVEVLLDAPLDAEPAGLDGVATIMARAFSEGTDKHSAEDFAAELERCGATLDAHADHPGVRLSLEVPASRLGKALGLLADALRAPAFADGEVERLVRNRLDEIPHELANPSRRAAKELSKELFPADARMSRPRQGTEETVETIDSAAVRAFYERHVRPATATAVVVGDLTGVDLDALLADTLGAWTGSAAEPRPVPPVTADDRGRVVIVDRPGAVQTQLLIGRTGADRHDRVWPAQVLGTYCLGGTLTSRLDRVLREEKGYTYGVRAFGQVLRSAPDGTGAAMLAISGSVDTPNTGPALEDLWTVLRKLAAEGLTDAERDVAVQNLVGVAPLKYETAAAVASTLADQVEQHLPDDFQATLYRQLAATGTVEATAAVVNAFPVDRLVTVLVGDAAQIKEPVEALGIGEVTVVAAE | failed
9 | GSSGSSGPTMEGPLRRKTLLKEGRKPALSSWTRYWVVLSGATLLYYGAKSLRGTDRKHYKSTPGKKVSIVGWMVQLPDDPEHPDIFQLNNPDKGNVYKFQTGSRFHAILWHKHLDDACKSSRPQVPANLMSFE | not failed
10 | MEEISGGALTDTLTDIVTWAAKEVGAIALGASLGAIFGTAYAGRWGGVSGGIFGIGSIGQGVGMIAGVILGGVCFGIAAGIVGWDMTLDYAQGVMDAIYDGTLNFWSN | failed
11 | MEATEKLREKPIKSLFISYLIPAVLGMVLMSVNIVIDAVMISRGVGANGLAGVNVAIPAFSIFFSISLWIGMGGATLYSIALGENKRERARSIFTQSMTVAVVIVGILAAICLWRIEDLAYLFGANEVILPYALDYLHVLLTFGMIYVLENILSTFIRNDGNPNLAMAGLVVTAVLNIVFDYIFIFIFGWGVTGAASATILSAAIGFLVLLTHFFRKSSILKWTKFHFEWDTVKQIMVIGFPSFTAESTVAIVTIGFNIAFVQYAGEVGVASYAMVNSIHAMTLLLFFGVGAALQPIASFHYGANLSERLREGLKFAVKIAVVLGGIAIIVGLFFGKYIIGLFDVQSPELLELTLTGISLFFIQYVFLGYNIVYGEYFQSVRQTKKSVLIIMSRGLLFIIPLLWIMPKLFGINGIWLVMPVAEVMTAIIVFTMNRMKHPVPLNMAGEKEAI | not failed
12 | MHELSISRHIAAPPGKVWDVLANRQEEWWCPRPWWITLIAQERRPGGRSAMVMHGPDGEEMPQEGIFLAWDEGHRFVTTDAVTADFLPAGPFMVGIWEVEPEGEGTRYTASARHWTEEAMREHAEMGFEAGWNACADQLQALCEAD | failed
13 | MPWIQVYTPVAGSLGLSALVAAIPLVVIFVCLALFKMKAHKAGLLALASAMLIAITVWGMPAKLAGLATAQGAAFGLFPVFYIVITTIFLYNITVKGGQFEIIRASLAGVTADRRLQALLIAFCFGAFIEGAAGFGTPVAIAGATLAGLGFQPLYAAGVCLVANTAPVAFGAIGIPIVALAGVMGYGDDGMMKLSTMVGRQLPFISVIIPFYVIMIMVGWKKTIEILPAIIVCGVTFALSQWATATYLGPYLPDVTASLASIIALVLLLRVWQPKTIYTFAHEAPVTGATEHHYTTGEVFRAWSPYLALTVMVLLWGIPSIKTVLDKSTVEIEVKGLHNMIVKKVAKPEDTLTKIAAASAEIDRQLTLLSPADPKQAAIAAKLMELKAFETQLAAVEQGLVGQGAVLTDERLKACDIVSKKMAETQKLCKELVKTAAVPANQFKPLDKALADHLPLKVAAKYKFNFMSAAGTAILIAAFLSALICGVGFADTFRILGKTLYDMRFPALTVASVLGLAYVMNASGMTNCLGLIFTKTGHWFPFIAPFLGWLGVFLTGSDTSSNVLFGGLQKATAEQLGISPILTGAANTSGGVMGKMISPQSLAVATAATGMVGEEGTLFRFTLKHSIFLTILVGIIVYLQAYVLQWMIP | failed
14 | LLTRQLEKSRQQQQLMVAIALIIRQSLKLEDILSVTVAEVRQFLQADRVLIYQFQPDMSGIVVAESILPGWIATKGAQIEDKCFQDSAGHNHQLKKRAINDIYQAGLTNCYLELLEQFQVKATLIVPIMVTNKSWGLLIAHQCAAPHHWQSFELDLLEQLAVQIAIAIQQASAYEQIQTELQERKRVEATLRESEQRFRQMADTAPVLIWMSGL | failed
15 | MLIERIYDEDLAQASYFIGCQAHNTAVVVDPRRDIAVYLDMAKKNGMEIVGVTETHIHADYLSGTRELAAATNATMYVSGEGGADWQYEFDAERICDGSEIRLGNLVLTAVHTPGHTPEHLSFLLKDGAFADEPGFMLTGDFVFAGDLGRPDLLDEAAGGVDTRFEGARQMFKSLKEKFLTLPDHIQIFPGHGSGSACGKALGSVPSTTLGYERQFAWWGKYLEADDEQGFIDELLEGQPDAPAYFGRMKRQNRQGPAIMGARELLPQLEASDLHDVIVVDTRSADEVHQGTVAGAVNIPAGNSMAKFGSWTVDPEKDSRALVLLAASQIGAMEMWDHMVRVGIDNVAGFITNFDGVDLVAPQTVSPDQLDELEYDLLLDVRNRSEVEEGYIPGALHINGASVLWNLEKLPRDGKIVSYCKSGTRSSIAASTLRNAGFDVVELQGSYDNWVRHNAQLEHHHHHH | not failed
16 | SRSKQKSRRRCFQCQTKLELVQQELGSCRCGYVFCMLHRLPEQHDCTFDHMGRG | not failed
17 | MLKVLFVPLNRNYVFDYIDDWKNIVADSLSRAGLSSEILIWPSTIKPSMKCFNWARKQYLAPCIIENMGNMFYDYLNEYFIVGIGYIDGYDYGLNFVFGEASPINRIAVVFTRRLDPRFYGEEPNYNLYLERVAKEIVHELGHLLGLSHCKRRTCVMSFSNSVYEVDAKTRFFCETCSNTLRKLNVLEHHHHHH | failed
18 | MWKRGKISTQLDDDEFRAGMRKAQVIDVREKKEFDAGHILGARNIPYSQMKNRTQELRSDLPVYLYDQGRTFSGRAAMLLSKKGFTQLYILKNGYQRWTGKTKKTKYLEHHHHHH | not failed
19 | AIAQGENVDHAQPISTWSAEQELHLVVFTKPPIAGLTKQRLSREIGSTLATRISAALVENTLATAYDWLQGLDLQAGGTGAVHLYYTPVESEQAKAECVERWLDDSVRHRYPAFRIAPQKASKVQSTGDQKQDPLGSRLIQAFTEVTSLVDESRDAHVVVIGSDCPALDTAVLQQAFAALHAGHGAVIGPAQDGGYYLLGLAFAAAERTRWARVIYAAFGPHLVFSQNDVCARTVEALRNDGVRTICLPVTLNDVDTAQDLVHLPASMRPREWFSSANARLHKTSDLVETAPAPGSTTCDEEVDADKLDPSVQNVCSRQV | not failed
20 | IEPEYFGEDAAENILIGWGSLEGAIKEAVNDLNKEGKEKYAALIFGDVWPLPEKLLREKASKAKTLIDVEQNAQGQLADIIREGTGIEVDKKILKYDGRPIMASYIVGRIKE | not failed
